Laboratory results reported in patent publication US20180305449A1 (ONCOMED PHARMACEUTICALS, published 2018).
Numbering of substitutions follows the chain as printed. Where two headings read alike, the source gives them in different places.

T1: Recombinant mouse VEGF165 (mouse, UniProt Q00731-2 27-190)
T1 construct: also called mVEGF
T1 sequence (looked up): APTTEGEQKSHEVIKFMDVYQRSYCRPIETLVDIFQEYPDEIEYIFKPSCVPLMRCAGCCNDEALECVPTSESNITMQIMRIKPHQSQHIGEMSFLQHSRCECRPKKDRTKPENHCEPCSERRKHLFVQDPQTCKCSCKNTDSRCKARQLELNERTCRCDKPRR

B1: anti-VEGF/anti-DLL4 bispecific antibody 219R45-MB-21R83 (bispecific antibody, human IgG2)
heavy 1: QVQLVQSGAEVKKPGASVKVSCKASGYTFTNYWMHWVRQAPGQGLEWMGDINPSNGRTSYKEKFKRRVTLSVDKSSSTAYMELSSLRSEDTAVYFCTIHYDDKYYPLMDYWGQGTLVTVSSASTKGPSVFPLAPCSRSTSESTAALGCLVKDYFPEPVTVSWNSGALTSGVHTFPAVLQSSGLYSLSSVVTVPSSNFGTQTYTCNVDHKPSNTKVDKTVERKCCVECPPCPAPPVAGPSVFLFPPKPKDTLMISRTPEVTCVVVDVSHEDPEVQFNWYVDGVEVHNAKTKPREEQFNSTFRVVSVLTVVHQDWLNGKEYKCKVSNKGLPAPIEKTISKTKGQPREPQVYTLPPSREKMTKNQVSLTCLVKGFYPSDIAVEWESNGQPENNYKTTPPMLKSDGSFFLYSKLTVDKSRWQQGNVFSCSVMHEALHNHYTQKSLSLSPGK
heavy 2: QVQLVQSGAEVKKPGASVKISCKASGYSFTAYYIHWVKQAPGQGLEWIGYISNYNRATNYNQKFKGRVTFTTDTSTSTAYMELRSLRSDDTAVYYCARDYDYDVGMDYWGQGTLVTVSSASTKGPSVFPLAPCSRSTSESTAALGCLVKDYFPEPVTVSWNSGALTSGVHTFPAVLQSSGLYSLSSVVTVPSSNFGTQTYTCNVDHKPSNTKVDKTVERKCCVECPPCPAPPVAGPSVFLFPPKPKDTLMISRTPEVTCVVVDVSHEDPEVQFNWYVDGVEVHNAKTKPREEQFNSTFRVVSVLTVVHQDWLNGKEYKCKVSNKGLPAPIEKTISKTKGQPREPQVYTLPPSREEMTKNQVSLTCLVEGFYPSDIAVEWESNGQPENNYKTTPPMLDSDGSFFLYSELTVDKSRWQQGNVFSCSVMHEALHNHYTQKSLSLSPGK
light: DIVMTQSPDSLAVSLGERATISCRASESVDNYGISFMKWFQQKPGQPPKLLIYAASNQGSGVPDRFSGSGSGTDFTLTISSLQAEDVAVYYCQQSKEVPWTFGGGTKVEIKRTVAAPSVIFPPSDEQLKSGTASVVCLLNNFYPREAKVQWKVDNALQSGNSQESVTEQDSKDSTYSLSSTLTLSKADYEKHKVYACEVTHQGLSSPVTKSFNRGEC
notes: Monovalent/bispecific IgG2 heterodimer with charge-modified CH3 domains and two identical light chains
B2: anti-VEGF/anti-DLL4 bispecific antibody 219R45-MB-21R75 (bispecific antibody, human IgG2)
heavy 1: B1 heavy 1
heavy 2: B1 heavy 2 with S52A, N53G, N55K, R56D
light: B1 light
notes: as for B1
B3: anti-VEGF/anti-DLL4 bispecific antibody 219R45-MB-21M18 (bispecific antibody, human IgG2)
heavy 1: B1 heavy 1
heavy 2: B1 heavy 2 with N53S, R56G
light: B1 light
notes: Monovalent/bispecific (MB) IgG2 heterodimer with charge-modified CH3 domains and two identical light chains
B4: anti-VEGF antibody 219R45 (parental, IgG format) (antibody, V domains shown)
VH: QVQLVQSGAEVKKPGASVKVSCKASGYTFTNYWMHWVRQAPGQGLEWMGDINPSNGRTSYKEKFKRRVTLSVDKSSSTAYMELSSLRSEDTAVYFCTIHYDDKYYPLMDYWGQGTLVTVSS
VL: DIVMTQSPDSLAVSLGERATISCRASESVDNYGISFMKWFQQKPGQPPKLLIYAASNQGSGVPDRFSGSGSGTDFTLTISSLQAEDVAVYYCQQSKEVPWTFGGGTKVEIKR
notes: Tested as the bivalent parental antibody in IgG format; also called parental anti-VEGF antibody 219R45
B5: anti-DLL4 antibody 21R79 (parental, IgG format) (antibody, V domains shown)
VH: QVQLVQSGAEVKKPGASVKISCKASGYSFTAYYIHWVKQAPGQGLEWIGYIANYNRATNYNQKFKGRVTFTTDTSTSTAYMELRSLRSDDTAVYYCARDYDYDVGMDYWGQGTLVTVSS
VL: B4 VL
notes: Tested as the parental antibody in IgG format
B6: anti-DLL4 antibody 21M18 (parental, IgG format) (antibody, V domains shown)
VH: B5 VH with A52S, N53S, R56G
VL: DIVMTQSPDSLAVSLGERATISCRASESVDNYGISFMKWFQQKPGQPPKLLIYAASNQGSGVPDRFSGSGSGTDFTLTISSLQAEDVAVYYCQQSKEVPWTFGGGTKVEIK
notes: Tested in IgG format; also called anti-hDLL4 antibody 21M18

Legend:
[1] = target: T2, biotin-DLL4-hFc (UniProt Q9NR61 27-522, limits assumed, biotinylated (site not stated)); test: Bispecific bridging ELISA: antibody pre-incubated with biotin-DLL4-hFc, captured on VEGF (ATGEN)-coated plate, streptavidin-HRP; potency relative to a reference anti-VEGF/anti-DLL4 bispecific antibody
T2 construct: not shown: human Fc (hFc)
Procedure: (§1) VEGF (ATGEN, South Korea) was coated onto Nunc maxisorb plates at 2 ug/ml (100 μl/well) and incubated overnight at 2-8° C. Bispecific antibodies 219R45-MB-21M18, 219R45-MB-21R79, 219R45-MB-21R75, and 219R45-MB-21R83 were diluted in blocking buffer (lx PBS, 0.1% gelatin, 0.1% Polysorbate-20, pH 7.4) containing 2 μg/ml biotin-DLL4-hFc. The antibodies were serially diluted 3-fold from 500 ng/ml to 0.008 ng/ml. The antibody samples were incubated for 2 hours in blocking buffer containing the biotin-DLL4-hFc. After incubation, the antibody samples were transferred to the VEGF-coated assay plate (100 ul/well) and incubated for 2 hours. Streptavidin-HRP (Jackson ImmunoResearch, West Grove, Pa.) was added to each well and incubated for 1 hr. TMB substrate was added to the wells with a 10 minute color development and the reaction was stopped with 2M sulfuric acid. Absorbance was read at 450-650 nm and the data analyzed using the 4-parameter fit within the Softmax Pro analysis program (Molecular Devices, Sunnyvale, Calif.).

[2] = target: T2, biotin-DLL4-hFc; test: bispecific sandwich ELISA: antibody pre-incubated with 2 ug/ml biotin-DLL4-hFc, captured on VEGF-coated plate, detected with streptavidin-HRP
Procedure: FIG. 7. Bispecific antibody ELISA. Bispecific antibodies 219R45-MB-21M18, 219R45-MB-21R79, 219R45-MB-21R75, and 219R45-MB-21R83 were diluted in blocking buffer (lx PBS, 0.1% gelatin, 0.1% Polysorbate-20, pH 7.4) containing 2 μg/ml biotin-DLL4-hFc. The antibodies were serially diluted 3-fold from 500 ng/ml to 0.008 ng/ml. The antibody samples were incubated for 2 hours in blocking buffer containing the biotin-DLL4-hFc. After incubation, the antibody samples were transferred to a VEGF-coated assay plate (100 ul/well) and incubated for 2 hours. Streptavidin-HRP was added to each well and incubated for 1 hr. TMB substrate was added to the wells with a 10 minute color development and the reaction was stopped with 2M sulfuric acid. Absorbance was read at 450-650 nm and the data analyzed using the 4-parameter fit within the Softmax Pro analysis program.
as §1

[3] = target: T3, Recombinant human DLL4-Fc (human, UniProt Q9NR61 27-522, limits assumed); test: SPR (Biacore 2000), human DLL4-Fc amine-coupled on CM5 chip, antibody as analyte
T3 construct: also called hDLL4; hDLL4-Fc; not shown: Fc portion
Procedure: (§2) The KDs of parental antibodies anti-VEGF 219R45 (IgG format), anti-DLL4 21R79 (IgG format), anti-DLL4 21M18 (IgG format) and bispecific antibodies 219R45-MB-21M18 and 219R45-MB-21R79 were determined using a Biacore 2000 system from Biacore LifeSciences (GE Healthcare). Recombinant human DLL4-Fc or mouse DLL4-Fc proteins were immobilized on CM5 carboxyl chips using standard amine-based chemistry (NHS/EDC) and blocked with ethanolamine Recombinant human VEGF₁₆₅ or mouse VEGF₁₆₅ were biotinylated and immobilized on streptavidin chips. The antibodies were serially diluted 2-fold from 100 nM to 0.78 nM in HBS-P (0.01M HEPES pH7.4, 0.15M NaCl, 0.005% v/v Polysorbate 20). For each antibody, all 8 dilutions were sequentially injected over a specific chip. Kinetic data were collected over time and were fit using the simultaneous global fit equation to yield affinity constants (KD values) for each bispecific antibody.
Several additional anti-DLL4 antibodies were identified that had binding affinities intermediate to the KDs of 21M18 and 21R79. Two of these anti-DLL4 antibodies were used to produce anti-VEGF/anti-DLL4 bispecific antibodies 219R45-MB-21R75 and 219R45-MB-21R83. Using the Biacore 2000 system as described above, the KDs of the bispecific antibodies 219R45-MB-21R75 and 219R45-MB-21R83 to human DLL4 were determined.

[4] = target: T4, Recombinant human VEGF165 (human, UniProt P15692-4 27-191); test: SPR (Biacore 2000), biotinylated human VEGF165 on streptavidin chip, antibody as analyte
T4 construct: also called hVEGF; hVEGF165
Procedure: as §2

[5] = target: T1, Recombinant mouse VEGF165; test: SPR (Biacore 2000), biotinylated mouse VEGF165 on streptavidin chip, antibody as analyte
Procedure: as §2

[6] = target: T3, Recombinant human DLL4-Fc; test: SPR (Biacore 2000), human DLL4-Fc amine-coupled on CM5 chip, antibody as analyte; remark: listed apart in the source
Procedure: as §2

[7] = target: T3, Recombinant human DLL4-Fc; test: HTRF bridging assay: Europium cryptate-labeled hVEGF165 and d2-labeled hDLL4-Fc; signal needs both bound at once
Procedure: (§3) To characterize the binding capabilities of certain antibodies and/or antibody mixtures to both VEGF and DLL4, homogeneous time resolved fluorescence (HTRF) assays were performed. Antibodies tested were anti-VEGF/anti-DLL4 bispecific antibodies 219R45-MB-21M18 and 219R45-MB-21R79, parental antibodies 219R45 (anti-VEGF), 21M18 (anti-DLL4), 21R79 (anti-DLL4), a combination of 219R45 and 21M18, or a combination of 219R45 and 21R79. The antibodies or antibody mixtures were serially diluted 2-fold from 3000 nM to 2.9 nM in binding buffer (1×PBS, 0.1% gelatin, 0.1% Polysorbate 20, 400 mM potassium fluoride) and placed in a white 96-well plate. An equal volume of solution containing 4 μg/ml of d2-labeled hDLL4-Fc and 21.4 ng/ml Europium crypate-labeled hVEGF₁₆₅ was added to each well for a final volume of 100 μl (final concentrations of acceptor and donor fluorophores were 2 μg/ml and 10.7 ng/ml, respectively). The assay plates were incubated for 2 hours to overnight and read on a SpectraMax M5e Microplate reader (Molecular Devices, Sunnyvale Calif.) at an excitation wavelength of 314 nm.

[8] = target: T4, Recombinant human VEGF165; test: as above
Procedure: as §3

T2 sequence (Q9NR61 27-522 limits assumed): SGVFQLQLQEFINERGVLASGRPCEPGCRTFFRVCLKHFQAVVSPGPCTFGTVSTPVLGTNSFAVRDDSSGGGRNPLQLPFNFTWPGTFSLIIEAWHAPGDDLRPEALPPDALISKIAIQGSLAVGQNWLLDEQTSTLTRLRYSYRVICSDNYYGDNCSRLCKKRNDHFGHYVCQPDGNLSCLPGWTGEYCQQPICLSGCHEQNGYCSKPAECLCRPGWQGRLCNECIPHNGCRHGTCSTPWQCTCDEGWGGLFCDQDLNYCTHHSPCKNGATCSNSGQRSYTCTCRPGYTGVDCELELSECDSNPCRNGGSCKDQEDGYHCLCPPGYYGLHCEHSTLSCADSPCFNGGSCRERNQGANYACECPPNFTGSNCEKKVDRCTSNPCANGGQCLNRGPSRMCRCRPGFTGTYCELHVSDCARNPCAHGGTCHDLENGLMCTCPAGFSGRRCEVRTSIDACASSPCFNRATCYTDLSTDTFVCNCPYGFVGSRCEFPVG
T3 sequence (Q9NR61 27-522 limits assumed): as above

Binder	Relative Potency (%) [1] [%]	EC50 (read off the curve) [2] [ng/mL]	Kd [3] [nM]	Kd [4] [nM]	Kd [5] [nM]	Kd [6] [nM]	binding result [7]	binding result [8]	binding result [5]
B1	222	~1	1.3	–	–	–	–	–	–
B2	422	~0.8	5.1	–	–	–	–	–	–
B3	67	~5	16	0.36	25.5	16	–	–	–
B4	–	–	–	0.67	22.9	–	no binding	–	–
B5	–	–	–	–	–	< 0.1	–	no binding	no binding (tested: 100 nM (highest concentration injected))
B6	–	–	–	–	–	< 0.1	–	no binding	no binding (tested: 100 nM (highest concentration injected))
